Earlier results on two substances are cited in US6368617B1, “Dietary supplement” (Reliv' International, Inc., priority 2001, dated 2002).

Where two headings read alike, the source gives them in different places.

As to “Growth Hormone: endocrine hormone produced by the pituitary, also known as somatotropin”, the half-life entry (circulating) is given as “about 20 minutes”.

Take “IGF-1: growth-promoting metabolite of hGH, somatomedin C, commercially known as Insulin-like Growth Factor type 1”: the half-life result (serum) is given as “about 20 hours”.
